In patent US20200002421A1 (AbbVie / Abbott, published 2020):

T1: Human full length B7-H3 (human, UniProt Q5ZPR3 29-534)
T1 sequence: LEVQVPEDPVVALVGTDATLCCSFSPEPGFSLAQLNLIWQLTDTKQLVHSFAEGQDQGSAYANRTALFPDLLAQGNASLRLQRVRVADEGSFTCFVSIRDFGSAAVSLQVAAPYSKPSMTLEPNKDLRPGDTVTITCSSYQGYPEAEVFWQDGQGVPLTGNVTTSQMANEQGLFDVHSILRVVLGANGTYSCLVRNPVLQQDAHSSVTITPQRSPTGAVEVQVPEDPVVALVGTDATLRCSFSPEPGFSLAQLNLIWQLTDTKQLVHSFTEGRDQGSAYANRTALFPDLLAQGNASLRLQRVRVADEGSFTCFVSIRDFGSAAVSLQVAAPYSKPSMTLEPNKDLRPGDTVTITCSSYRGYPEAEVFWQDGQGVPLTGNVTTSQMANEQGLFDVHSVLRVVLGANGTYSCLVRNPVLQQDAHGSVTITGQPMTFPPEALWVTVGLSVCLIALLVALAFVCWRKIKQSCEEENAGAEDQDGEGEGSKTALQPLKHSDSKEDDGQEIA

T2: hB7-H3 (ELISA antigen of Tables 17 and 20) (human, UniProt Q5ZPR3 29-466, limits assumed)
T2 sequence: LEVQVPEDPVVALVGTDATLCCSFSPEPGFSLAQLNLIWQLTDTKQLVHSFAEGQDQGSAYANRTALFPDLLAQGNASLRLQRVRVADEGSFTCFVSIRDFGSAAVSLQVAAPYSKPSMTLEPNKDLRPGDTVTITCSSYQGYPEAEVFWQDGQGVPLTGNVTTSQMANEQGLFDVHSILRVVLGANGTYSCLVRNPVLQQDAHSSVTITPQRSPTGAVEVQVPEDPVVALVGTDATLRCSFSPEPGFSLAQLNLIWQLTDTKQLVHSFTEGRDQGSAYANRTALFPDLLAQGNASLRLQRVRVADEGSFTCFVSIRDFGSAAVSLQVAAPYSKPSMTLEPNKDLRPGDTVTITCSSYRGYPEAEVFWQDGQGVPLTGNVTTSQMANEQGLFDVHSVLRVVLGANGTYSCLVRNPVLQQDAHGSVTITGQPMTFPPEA

B1: huAb3v2.6-XW (antibody, human IgG1, kappa, L234A L235A, V domains shown)
VH: EVQLVQSGAEVKKPGSSVKVSCKASGYTFSSYWMHWVRQAPGQGLEWIGLIHPESGSTNYNEMFKNRATLTVDRSTSTAYMELSSLRSEDTAVYYCAGGGRLYFDYWGQGTTVTVSS
VL: DIVMTQSPLSLPVTPGEPASISCRSSQSLVHSNQDTYLRWYLQKPGQSPQLLIYKVSNRFSGVPDRFSGSGSGTDFTLKISRVEAEDVGVYYCSQSTHVPYTFGGGTKVEIKR
modifications: synthon XW on interchain Cys
B2: huAb3v2.6-SE (antibody, human IgG1, kappa, L234A L235A, V domains shown)
VH: EVQLVQSGAEVKKPGSSVKVSCKASGYTFSSYWMHWVRQAPGQGLEWIGLIHPESGSTNYNEMFKNRATLTVDRSTSTAYMELSSLRSEDTAVYYCAGGGRLYFDYWGQGTTVTVSS
VL: DIVMTQSPLSLPVTPGEPASISCRSSQSLVHSNQDTYLRWYLQKPGQSPQLLIYKVSNRFSGVPDRFSGSGSGTDFTLKISRVEAEDVGVYYCSQSTHVPYTFGGGTKVEIKR
modifications: synthon SE on interchain Cys
B3: huAb3v2.6-SR (antibody, human IgG1, kappa, L234A L235A, V domains shown)
VH: EVQLVQSGAEVKKPGSSVKVSCKASGYTFSSYWMHWVRQAPGQGLEWIGLIHPESGSTNYNEMFKNRATLTVDRSTSTAYMELSSLRSEDTAVYYCAGGGRLYFDYWGQGTTVTVSS
VL: DIVMTQSPLSLPVTPGEPASISCRSSQSLVHSNQDTYLRWYLQKPGQSPQLLIYKVSNRFSGVPDRFSGSGSGTDFTLKISRVEAEDVGVYYCSQSTHVPYTFGGGTKVEIKR
modifications: synthon SR on interchain Cys
B4: huAb3v2.6-YG (antibody, human IgG1, kappa, L234A L235A, V domains shown)
VH: EVQLVQSGAEVKKPGSSVKVSCKASGYTFSSYWMHWVRQAPGQGLEWIGLIHPESGSTNYNEMFKNRATLTVDRSTSTAYMELSSLRSEDTAVYYCAGGGRLYFDYWGQGTTVTVSS
VL: DIVMTQSPLSLPVTPGEPASISCRSSQSLVHSNQDTYLRWYLQKPGQSPQLLIYKVSNRFSGVPDRFSGSGSGTDFTLKISRVEAEDVGVYYCSQSTHVPYTFGGGTKVEIKR
modifications: synthon YG on interchain Cys
B5: huAb3v2.5 (antibody, human IgG1, kappa, L234A L235A, V domains shown)
VH: EVQLVQSGAEVKKPGSSVKVSCKASGYTFSSYWMHWVRQAPGQGLEWIGLIHPESGSTNYNEMFKNRATLTVDRSTSTAYMELSSLRSEDTAVYYCAGGGRLYFDYWGQGTTVTVSS
VL: DIVMTQSPLSLPVTPGEPASISCRSSQSLVHSNRDTYLRWYLQKPGQSPQLLIYKVSNRFSGVPDRFSGSGSGTDFTLKISRVEAEDVGVYYCSQSTHVPYTFGGGTKVEIKR
notes: Ig gamma-1 mutant / kappa
B6: huAb3v2.6-KZ (antibody, human IgG1, kappa, L234A L235A, V domains shown)
VH: EVQLVQSGAEVKKPGSSVKVSCKASGYTFSSYWMHWVRQAPGQGLEWIGLIHPESGSTNYNEMFKNRATLTVDRSTSTAYMELSSLRSEDTAVYYCAGGGRLYFDYWGQGTTVTVSS
VL: DIVMTQSPLSLPVTPGEPASISCRSSQSLVHSNQDTYLRWYLQKPGQSPQLLIYKVSNRFSGVPDRFSGSGSGTDFTLKISRVEAEDVGVYYCSQSTHVPYTFGGGTKVEIKR
modifications: synthon KZ on interchain Cys
B7: huAb3v2.2 (antibody, V domains shown)
VH: EVQLVQSGAEVKKPGSSVKVSCKASGYTFSSYWMHWVRQAPGQGLEWIGLIHPWSGSTNYNEMFKNRATLTVDRSTSTAYMELSSLRSEDTAVYYCAGGGRLYFDYWGQGTTVTVSS
VL: DIVMTQSPLSLPVTPGEPASISCRSSQSLVHSNRDTYLRWYLQKPGQSPQLLIYKVSNRFSGVPDRFSGSGSGTDFTLKISRVEAEDVGVYYCSQSTHVPYTFGGGTKVEIK
B8: huAb3v2 (antibody, V domains shown)
VH: EVQLVQSGAEVKKPGSSVKVSCKASGYTFSSYWMHWVRQAPGQGLEWIGLIHPDSGSTNYNEMFKNRATLTVDRSTSTAYMELSSLRSEDTAVYYCAGGGRLYFDYWGQGTTVTVSS
VL: DIVMTQSPLSLPVTPGEPASISCRSSQSLVHSNGDTYLRWYLQKPGQSPQLLIYKVSNRFSGVPDRFSGSGSGTDFTLKISRVEAEDVGVYYCSQSTHVPYTFGGGTKVEIK
B9: huAb13v1-AAA (antibody, human IgG1, kappa, L234A L235A, V domains shown)
VH: EVQLQESGPGLVKPSETLSLTCAVTGYSITSGYSWHWIRQFPGNGLEWMGYIHSSGSTNYNPSLKSRISISRDTSKNQFFLKLSSVTAADTAVYYCAGYDDYFEYWGQGTTVTVSS
VL: DIQMTQSPSSLSASVGDRVTITCKASQNVGFNVAWYQQKPGKSPKALIYSASYRYSGVPSRFSGSGSGTDFTLTISSLQPEDFAEYFCQQYNWYPFTFGQGTKLEIKR
modifications: synthon AAA on interchain Cys
B10: huAb13v1-WD (antibody, human IgG1, kappa, L234A L235A, V domains shown)
VH: EVQLQESGPGLVKPSETLSLTCAVTGYSITSGYSWHWIRQFPGNGLEWMGYIHSSGSTNYNPSLKSRISISRDTSKNQFFLKLSSVTAADTAVYYCAGYDDYFEYWGQGTTVTVSS
VL: DIQMTQSPSSLSASVGDRVTITCKASQNVGFNVAWYQQKPGKSPKALIYSASYRYSGVPSRFSGSGSGTDFTLTISSLQPEDFAEYFCQQYNWYPFTFGQGTKLEIKR
modifications: synthon WD on interchain Cys
B11: huAb13v1-LB (antibody, human IgG1, kappa, L234A L235A, V domains shown)
VH: EVQLQESGPGLVKPSETLSLTCAVTGYSITSGYSWHWIRQFPGNGLEWMGYIHSSGSTNYNPSLKSRISISRDTSKNQFFLKLSSVTAADTAVYYCAGYDDYFEYWGQGTTVTVSS
VL: DIQMTQSPSSLSASVGDRVTITCKASQNVGFNVAWYQQKPGKSPKALIYSASYRYSGVPSRFSGSGSGTDFTLTISSLQPEDFAEYFCQQYNWYPFTFGQGTKLEIKR
modifications: synthon LB on interchain Cys
B12: huAb13v1-ZT (antibody, human IgG1, kappa, L234A L235A, V domains shown)
VH: EVQLQESGPGLVKPSETLSLTCAVTGYSITSGYSWHWIRQFPGNGLEWMGYIHSSGSTNYNPSLKSRISISRDTSKNQFFLKLSSVTAADTAVYYCAGYDDYFEYWGQGTTVTVSS
VL: DIQMTQSPSSLSASVGDRVTITCKASQNVGFNVAWYQQKPGKSPKALIYSASYRYSGVPSRFSGSGSGTDFTLTISSLQPEDFAEYFCQQYNWYPFTFGQGTKLEIKR
modifications: synthon ZT on interchain Cys
B13: huAb13v1-AAD (antibody, human IgG1, kappa, L234A L235A, V domains shown)
VH: EVQLQESGPGLVKPSETLSLTCAVTGYSITSGYSWHWIRQFPGNGLEWMGYIHSSGSTNYNPSLKSRISISRDTSKNQFFLKLSSVTAADTAVYYCAGYDDYFEYWGQGTTVTVSS
VL: DIQMTQSPSSLSASVGDRVTITCKASQNVGFNVAWYQQKPGKSPKALIYSASYRYSGVPSRFSGSGSGTDFTLTISSLQPEDFAEYFCQQYNWYPFTFGQGTKLEIKR
modifications: synthon AAD on interchain Cys
B14: huAb13v1-ZZ (antibody, human IgG1, kappa, L234A L235A, V domains shown)
VH: EVQLQESGPGLVKPSETLSLTCAVTGYSITSGYSWHWIRQFPGNGLEWMGYIHSSGSTNYNPSLKSRISISRDTSKNQFFLKLSSVTAADTAVYYCAGYDDYFEYWGQGTTVTVSS
VL: DIQMTQSPSSLSASVGDRVTITCKASQNVGFNVAWYQQKPGKSPKALIYSASYRYSGVPSRFSGSGSGTDFTLTISSLQPEDFAEYFCQQYNWYPFTFGQGTKLEIKR
modifications: synthon ZZ on interchain Cys

Tests used:
Human full length B7-H3 [1] = target: T1, Human full length B7-H3; assay: cell-based or functional assay
[2] = target: T2, hB7-H3 (ELISA antigen of Tables 17 and …); assay: ELISA
[3] = target: T3, Cynomolgous B7-H3 on cells (cynomolgus); assay: FACS, 3T12 transfectants
T3 construct: whole, on cells; also called cyno B7-H3; cyB7-H3

Human full length B7-H3 [4] = target: T1, Human full length B7-H3; assay: FACS, 3T12 transfectants

Binder | EC50 nM H1650 (in vitro tumor cell cytotoxicity) (Human full length B7-H3 [1]) | other results
B1 | 2.4 nM | 
B2 | 1.01 nM | 
B3 | 0.71 nM | 
B4 | 0.68 nM | 
B5 |  | EC50 [2]: 0.13 nM; EC50 [3]: 4.86 nM
B6 | 5.52 nM | 
B7 |  | EC50 [2]: 0.1 nM; EC50 (Human full length B7-H3 [4]): 5.29 nM; EC50 [3]: 3.68 nM
B8 |  | EC50 [2]: 0.44 nM; EC50 (Human full length B7-H3 [4]): 5.11 nM; EC50 [3]: 2.87 nM
B9 | 0.37 nM | 
B10 | 0.45 nM | 
B11 | > 133 nM | 
B12 | 0.3 nM | 
B13 | 0.21 nM | 
B14 | 0.42 nM | 
